Test results as given in paper PMC6793842 (2019).

B1: chimpanzee basigin, entire ectodomain (receptor)
chain: ASGAAGTVFTTVEDLGSKILLTCYMNDSATEVTGHRWLKGGVVLEEDALPGQKTEFKVDSDDQWGEYSCVFLPEPMGTANIQLHGPPRVKAVKSSEHINEGETAVLVCKSESVPPVTDWAWYKITDSGDKALMNGSESRFFVSSLQGRSELHIENLNMEADPGQYRCNGNSSEGSDQAVITLRVRSHLA
modifications: biotin (enzymatic monobiotinylation; site not stated)

Legend:
Assay in all cases: SPR
[1] = molecular target: B1
P. billcollinsi RH5 = P. billcollinsi RH5 (P. billcollinsi)
[2] = molecular target: introgressed ancestral RH5 (reticulocyte-binding protein homologue 5) (calculated ancestor; parent sequence P. …, UniProt Q8IFM5 25-526, H200)
P. adleri RH5 = P. adleri RH5 (P. adleri)
P. praefalciparum RH5 = P. praefalciparum RH5 (P. praefalciparum)
P. gaboni RH5 = P. gaboni RH5 (P. gaboni)

Binder	Kd (P. adleri RH5) [nM]	Kd (P. praefalciparum RH5) [nM]	other results
P. reichenowi RH5 (ligand) MIRIKKKIILSILYIHLFILNSLSFENAKKKTKNQENNLTLLPIKSSEEEKSNIKHKDIGNVNKDDINNDIDNDKKDVKISNVKDHSTYIKSYLNKNVNDGLKYLFMPSHNAYIKKYSLFNKMNNDMLLNEKKDVNNNKEDDKNINHKNVNFLQNDFKGLPKNNIADSIDIVQDKEGHLDFIIIPYYSHVEYCKHLSIISVFHRLSTYGEYKDVIAFVKNINEKYDKVKDKCNEIKNDLITTIKKLENPHDVNNKNEDSNIYNTFEDIDDIYEDDMQDQLEYVYDTIEDADSDNTHPNKKKYHLINRTYKKMMDEYNLKKNKLIQCIKNNEPDFNNIYMDIKNYSTNRFENISCDNINFCNTNGIKNHYIYYIEKEMLAIKSKDLNKDIKDMTSILQQSELLLINLNKKMGSYIYIDTIKFIHKEMKYIFKRIEHHTNIIIDKIKIIDDKYKISINKTFPKNILLPKILDLSNEYALFITSSTLRQMLYNTFYTKEKHLHNLFHHLIYVLQIKFNDVPVHMEYFPLYKKKKILTQ	–	–	Kd [1]: 4300 nM
B1	–	–	Kd (P. billcollinsi RH5): 1800 nM
gorilla basigin, entire ectodomain (receptor, biotin (enzymatic monobiotinylation; site not stated)) ASGAAGTVLTTVEELGSKILLTCSLNDSATEVTGHRWLKGGVVLKEDALPGQKTEFEVDSDDQWGEYSCVFLPEPMGTANIQLHHGPPRVKAVKLSEHINEGETAVLACKSESVPPVTDWAWYKITDSGDKALTNGSESRFFVSSSQGRSELYIENLNMEADPGQYRCNGTSSKGSDQAVITLRVRSHLA	1000	2500	Kd [2]: 3000 nM
human basigin, entire ectodomain (receptor, biotin (enzymatic monobiotinylation; site not stated)) EPGTVFTTVEDLGSKILLTCSLNDSATEVTGHRWLKGGVVLKEDALPGQKTEFKVDSDDQWGEYSCVFLPEPMGTANIQLHGPPRVKAVKSSEHINEGETAMLVCKSESVPPVTDWAWYKITDSEDKALMNGSESRFFVSSSQGRSELHIENLNMEADPGQYRCNGTSSKGSDQAIITLRVRSHLAAL	3100	1900	Kd (P. gaboni RH5): 3600 nM
